The chains are these.
B3: KtrB (wild type), membrane protein of the KtrAB K+ transporter from Bacillus subtilis (natural protein)
chain: MTLQKDKVIKWVRFTPPQVLAIGFFLTIIIGAVLLMLPISTTKPLSWIDALFTAASATTVTGLAVVDTGTQFTVFGQTVIMGLIQIGGLGFMTFAVLIVMILGKKIGLKERMLVQEALNQPTIGGVIGLVKVLFLFSISIELIAALILSIRLVPQYGWSSGLFASLFHAISAFNNAGFSLWPDNLMSYVGDPTVNLVITFLFITGGIGFTVLFDVMKNRRFKTFSLHTKLMLTGTLMLNAIAMLTVFILEYSNPGTLGHLHIVDKLWASYFQAVTPRTAGFNSLDFGSMREGTIVFTLLLMFIGAGSASTASGIKLTTFIVILTSVIAYLRGKKETVIFRRSIKYPIIIKALAVSVTSLFIVFLGIFALTITEQAPFLQIVFETFSAFGTVGLTMGLTPELTTAGKCIIIVIMFIGRIGPLTFVFSFAKTEQSNIRYPDGEVFTG
notes: KtrB, membrane protein of the KtrAB K+ transporter, Bacillus subtilis, GenBank KIX81591.1; In detergent (DDM or cymal-6), or reconstituted in E. coli polar lipid liposomes for the float-up; also called KtrB wt; wild-type KtrB; source: E. coli BL21(DE3), purified (DDM extraction, Talon resin, thrombin, Superdex-200); not shown: His tag, N-terminal, cleaved

In series [1] the target is B3. The experiment in a line: SEC; size-exclusion purified KtrB (wild type or mutant) mixed with an excess of KtrA (wild type, KtrAC0 or KtrAΔC), run in the presence of ATP or ADP, in detergent; SDS-PAGE of the fractions. The settings on record: both partners purified. On the technique in general: SEC sorts molecules by how far they enter the pores of the column.
Series [2] concerns the molecule itself. The experiment in a line: crystal structure; wild-type KtrAB with ADP, 8 Å diffraction dataset; molecular replacement searches and an averaged map only (low resolution model); crystals from 100 mM Hepes pH 7.5, 1 M NaCl, 10% PEG4000, 20°C.
Series [3] concerns the molecule itself. The experiment in a line: crystal structure; KtrAΔCB with bound ADP, data to 6 Å, molecular replacement, 4-fold and 8-fold averaging, DEN refinement; crystals from 100 mM Tris-HCl pH 8.5, 18%–22% PEG400, 100–200 mM CaCl2, 20°C.

B1: KtrA (wild type), cytosolic RCK ring protein of the KtrAB K+ transporter from Bacillus subtilis (natural protein, UniProt O32080 1-222, looked up)
chain: MGRIKNKQFAVIGLGRFGGSICKELHRMGHEVLAVDINEEKVNAYASYATHAVIANATEENELLSLGIRNFEYVIVAIGANIQASTLTTLLLKELDIPNIWVKAQNYYHHKVLEKIGADRIIHPEKDMGVKIAQSLSDENVLNYIDLSDEYSIVELLATRKLDSKSIIDLNVRAKYGCTILAIKHHGDICLSPAPEDIIREQDCLVIMGHKKDIKRFENEGM
notes: KtrA, RCK domain protein of the KtrAB K+ transporter, Bacillus subtilis, GenBank KIX81590.1; eluted and kept with ADP or ATP; also called full-length KtrA; wild type KtrA; source: E. coli BL21(DE3), purified (anion exchange, ADP-agarose, Superdex-S200)
Take B1: the binding result in series [1] and in series [2] was “binds” each time.

B2: KtrAΔC, C-terminal domain truncated KtrA (tandem of two N-terminal KtrA domains) (domain or fragment, Bacillus subtilis)
chain: MGRIKNKQFAVIGLGRFGGSICKELHRMGHEVLAVDINEEKVNAYASYATHAVIANATEENELLSLGIRNFEYVIVAIGANIQASTLTTLLLKELDIPNIWVKAQNYYHHKVLEKIGADRIIHPEKDMGVKIAQSLSDENVLNYLEGSKQFAVIGLGRFGGSICKELHRMGHEVLAVDINEEKVNAYASYATHAVIANATEENELLSLGIRNFEYVIVAIGANIQASTLTTLLLKELDIPNIWVKAQNYYHHKVLEKIGADRIIHPEKDMGVKIAQSLSDENVLNY
notes: KtrA N-terminal domain, Bacillus subtilis, GenBank KIX81590.1, residues 1-144 (first copy of the tandem); linker between the two N-terminal domains; KtrA N-terminal domain, Bacillus subtilis, GenBank KIX81590.1, residues 7-144 (second copy of the tandem); Lacks KtrA residues 145-222 (the whole C-terminal domain); Forms an octameric ring counted in N-terminal domains; each chain carries two of …
Take B2: the binding result in series [3] and in series [1] was “binds” in each case.
Turning to B3, the stoichiometry N – broadly, a count of units in the complex or per binding partner – in series [3] came to 2.

(Values after publication PMC4714889, “Dissecting the Molecular Mechanism of Nucleotide-Dependent Activation of the KtrAB K^+ Transporter” (PLoS Biology, 2016).)
